This note sets out measurements from article PMC8578620 (Nature Communications, 2021).

This assay concerns the target CAP256.wk34.c80 SOSIP.RnS2 Env trimer containing the native N160 glycan site (HIV-1 clade C, CAP256.wk34.c80 …, stabilised).

B1: 2G12 (antibody, V domains shown)
VH: EVQLVESGGGLVKAGGSLILSCGVSNFRISAHTMNWVRRVPGGGLEWVASISTSSTYRDYADAVKGRFTVSRDDLEDFVYLQMHKMRVEDTAIYYCARKGSDRLSDNDPFDAWGPGTVVTVSP
VL: VVMTQSPSTLSASVGDTITITCRASQSIETWLAWYQQKPGKAPKLLIYKASTLKTGVPSRFSGSGSGTEFTLTISGLQFDDFATYHCQHYAGYSATFGQGTRVEIK
Regarding B1, the binding result was “binds”.
